Reference: article PMC11192767, “A cocktail nanovaccine targeting key entry glycoproteins elicits high neutralizing antibody levels against EBV infection” (Nature Communications, 2024)

Biological target: the molecule itself
Assay: native gel or EMSA; gB before encapsulation and gB released from nanoparticles, analysed under native non-reducing conditions (Fig. S5A)

B1: EBV gB ectodomain (residues 22 to 672, fusion-loop residues replaced with HSV-1 residues), 6x His tag (domain or fragment)
chain: AQTPEQPAPPATTVQPTATRQQTSFPFRVCELSSHGDLFRFSSDIQCPSFGTRENHTEGLLMVFKDNIIPYSFKVRSYTKIVTNILIYNGHRADSVTNRHEEKFSVDSYETDQMDTIYQCYNAVKMTKDGLTRVYVDRDGVNITVNLKPTGGLANGVRRYASQTELYDAPGRVEATYRTRTTVNCLITDMMAKSNSPFDFFVTTTGQTVEMSPFYDGKNKETFHERADSFHVRTNYKIVDYDNRGTNPQGERRAFLDKGTYTLSWKLENRTAYCPLQHWQTFDSTIATETGKSIHFVTDEGTSSFVTNTTVGIELPDAFKCIEEQVNKTMHEKYEAVQDRYTKGQEAITYFITSGGLLLAWLPLTPRSLATVKNLTELTTPTSSPPSSPSPPAPSAARGSTPAAVLRRRRRDAGNATTPVPPTAPGKSLGTLNNPATVQIQFAYDSLRRQINRMLGDLARAWCLEQKRQNMVLRELTKINPTTVMSSIYGKAVAAKRLGDVISVSQCVPVNQATVTLRKSMRVPGSETMCYSRPLVSFSFINDTKTYEGQLGTDNEIFLTKKMTEVCQATSQYYFQSGNEIHVYNDYHHFKTIELDGIATLQTFISLNTSLIENIDFASLELYSRDEQRASNVFDLEGIFREYNFQAQNIA
notes: Epstein-Barr virus glycoprotein B (gB), ectodomain residues 22 to 672, PCR-amplified from the EBV M81 strain (GenBank KF373730.1); WY112-113 and WLIW193-196 replaced with HSV-1 residues HR177-178 and RVEA258-261; Tested both before encapsulation and after release from the nanoparticles; also called glycoprotein B; fusogen gB; source: 293F cells, transiently transfected (pCDNA3.1-gB), purified …
In the case of B1, the “stoichiometry N” value is reported as 3.
